Assay results from the supplement of paper PMC12042874.
± gives the uncertainty stated by the source.

Assay: amyloid nucleation score (Sup35N fusion, yeast selection) (log enrichment); library NNK1; higher = more nucleation; inactive = no reads after selection
Summary of the method: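 Using DiMSum, nucleation scores were taken as the log enrichment of output over input reads, centred on the mode score of non-aggregating sequences. The input and output reads came from Illumina sequencing of plasmid inserts, with sequences under 100 input reads excluded. The yeast were psi-negative, expressed Sup35N fused to peptides of 20 random codons, were induced with 100 μM copper sulfate for 24 hours, and were grown 7 days at 30°C on medium lacking adenine and uracil.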

| Substance | amyloid nucleation score |
| --- | --- |
| MWNRFWLLDALLWGNYLSQS | 0.043 ± 0.33 |
| MWRKHR | -0.543 ± 0.65 |
| MWVYFVLCKKVAEGVCFIDT | 0.996 ± 0.61 |
| MYASWSVF | -0.223 ± 0.34 |
| MYCGS | -0.279 ± 0.27 |
| MYFVRVSSDA | 0.351 ± 0.54 |
| MYGITKSA | 0.195 ± 0.64 |
| MYREYLGRSRRQFYFGTGKH | 3.82 ± 0.16 |
| MYSLVCNHCAQSISIPSRWS | 3.97 ± 0.11 |
| NAVITESLIDKAPVGSNWDT | -0.498 ± 0.59 |
| NAYLKVIYQRSFGAPNRH | -0.1 ± 0.69 |
| NAYRYMCRCGFLSLRAGWRV | inactive |
| NCECSFWKREGSWGTLVSGM | 0.201 ± 0.51 |
| NCEFIVWGVSSNFEMVFGLM | -0.267 ± 0.9 |
| NCFRLLCFRGLVGQRGL | 0.141 ± 0.59 |
| NCFSMRQRECCRYRMCVNGI | 1.01 ± 0.55 |
| NCRMTGCLSQRRQKECCNRI | -0.755 ± 0.51 |
| NCVVYDIEYICWNIGGKI | 5.71 ± 0.077 |
| NCYGYVEKWWGVCTNDPLGR | -0.133 ± 0.25 |
| NDDNCSSVSWWNKWCSTR | 1.44 ± 0.41 |
| NDHDGEFDD | 0.239 ± 0.57 |

| Substance | amyloid nucleation score |
| --- | --- |
| NDNGVMLVLCEGMY | 0.014 ± 0.32 |
| NDRLFLHGARKLTVLIFVVG | -0.015 ± 0.3 |
| NDRSFYQITKILHPRDASQN | -1.08 ± 0.55 |
| NDTVWVVWMLKELSLYVELV | 0.329 ± 0.53 |
| NDWIFD | inactive |
| NECDVALIRWWG | 0.419 ± 0.45 |
| NELNLYGSEFAFYWVDKLCH | 4.13 ± 0.073 |
| NFARDLKRHVRMG | 0.461 ± 0.35 |
| NFFVDDSDRGQYKFDPFCCG | inactive |
| NFGAQRYHSRLLL | -0.223 ± 0.59 |
| NFGIRGRRTAGLEVRCLRRC | -1.22 ± 2.7 |
| NFKQGNSYVCNSCLGCGVSR | 6.45 ± 0.084 |
| NFLCFGFFRWTVPDWAQFYV | 3.76 ± 0.12 |
| NFLMKWCEINTCLLVSFSYW | 4.5 ± 0.071 |
| NFPKHFSSALRF | -0.081 ± 0.35 |
| NFRNLSYCFQFPMFVARRLK | 1.06 ± 0.67 |
| NFRNSGESSTNYSK | inactive |
| NFSFLGFLSRYGCLFQVSS | 0.582 ± 0.6 |
| NFSLIFENMIALFPYPARKR | 7.742 ± 0.056 |
| NFSRIKYYGSYEVFIFAGNY | 0.398 ± 0.79 |
| NFTSRYEANFTVFSFRAWRL | 0.297 ± 0.36 |

| Substance | amyloid nucleation score |
| --- | --- |
| NFVIFKRFFNFHKNWNGWSR | 3.8 ± 0.07 |
| NFVQLAWLVRWAWEV | -0.088 ± 0.56 |
| NFVSYTFLCCGCVVLILVTS | 0.114 ± 0.28 |
| NGFSDRKLDFHTRHMGH | -0.147 ± 0.36 |
| NGMIFFVIGMNFGCQESSRN | 6.208 ± 0.051 |
| NGNLKRSSEVFHCFGISLEF | 0.694 ± 0.36 |
| NGTWYILSQASFFYELDAYC | -0.012 ± 0.43 |
| NGWIMRR | -0.094 ± 1.5 |
| NGYIKRVFFSVNMFSMHTSF | 0.079 ± 0.48 |
| NHCFLVRWNISKSSRDVSWC | 0.142 ± 0.47 |
| NHHLRPEMQEVCHL | 0.482 ± 0.67 |
| NHVLVVGISNLSSCHWMPNF | 3.14 ± 0.12 |
| NHYCRFHFTLESFLAGHVAN | 1.38 ± 0.23 |
| NHYGSVAGLPPNNHWVSFCV | -0.373 ± 0.99 |
| NIASGFGFPYRGVLSC | 0.184 ± 1 |
| NICMQTRVIRAS | 0.811 ± 0.5 |
| NIEIRVCSRIVGHGLKFPKP | 3.37 ± 0.17 |
| NIGIMNFIVLAFLQ | 6.529 ± 0.062 |
| NINFGVVSYSVYMLL | 6.649 ± 0.054 |
| NISPISYKIVVTIYSYFWLS | 0.452 ± 0.4 |
| NISSIASVWVCVKVRYVSYS | 0.432 ± 0.59 |

| Substance | amyloid nucleation score |
| --- | --- |
| NKCIAKDGDMES | -0.015 ± 0.23 |
| NKRVHWLSGRLWIWYHWWVI | -1.5 ± 1.7 |
| NKSHAHLKVAMSLVCPFKSH | 1.5 ± 0.44 |
| NKSVNLEYGRWVNMVPGLM | inactive |
| NLCFLITNYINRLNFYNFVV | 0.807 ± 0.93 |
| NLCRIRIARLQHGGRSTMSF | 1 ± 0.73 |
| NLCYHWVRNIQNGQRFLCQL | inactive |
| NLGLDVCEYIVVTWLTNDWS | -0.258 ± 0.51 |
| NLINVFTLKWFDITL | 5.686 ± 0.053 |
| NLLSALNMVVFHNLEFYVIF | 2.58 ± 0.25 |
| NLLWNTVIIFDFVRNLWTWS | 0.813 ± 0.72 |
| NLNSMAFV | 0.662 ± 0.56 |
| NLPLLFL | -0.069 ± 0.27 |
| NLPSSKKVLPCFFLRSIYGC | 0.9 ± 0.4 |
| NLRYSFFFNSDNSRVWECS | 0.682 ± 0.35 |
| NLSALLHDHFMGPIDLKFLT | 1.8 ± 0.52 |
| NLSSSRSVVKNLTFQMWNTS | 4.45 ± 0.063 |
| NLTFGYVGHK | 3.91 ± 0.087 |
| NLTHARGVSSVQRGVMSRTG | -0.747 ± 0.6 |
| NLTWAGTLY | -0.875 ± 1.5 |
| NLVWSYFLLGTDSYITTYDW | 0.314 ± 0.79 |
